# Test results taken from patent US20260234738A1 (Regeneron, published 2026).
# Changes are numbered by the printed parent chain. Where “and” joins values, the source holds several entries; their conditions need not be identical. Equal entries are not always repeated.
# B1: mAb10934 (antibody, V domains shown)
# VH: not shown
# VL: DIQMTQSPSSLSASVGDRVTITCQASQDIWNYINWYQQKPGKAPKLLIYDASNLKTGVPSRFSGSGSGTDFTFTISSLQPEDIATYYCQQHDDLPPTFGQGTKVEIKR
# B2: mAb10954 (antibody, V domains shown)
# VH: EVQLVESGGGLVQPGGSLRLSCAASGITVSSNYMSWVRQAPGKGLEWVSLIYSGGSTYYADSVKGRFTISRDNSKNTLYLQMNSLRVEDTAVYYCARDHGMAAAGYNYWGQGTLVTVSS
# VL: B1 VL with W30N, N31K, I33L, K55E, S76N, I83F, Y87F, H91Y, D93N, T97A
# B3: mAb10935 (antibody, V domains shown)
# VH: EVQLVESGGGLVQPGGSLRLSCAASGFTVSSNYMSWVRQAPGKGLEWVSLIYSGGSTYYADSVKGRFTISRHNSKNTLYLQMNSLRSEDTAVYYCARVPLGDYYYGMDVWGQGTTVTVSS
# VL: B1 VL with W30N, N31K, I33L, K55E, H91S, D93N, P96L, Q100G
# B4: mAb10955 (antibody, V domains shown)
# VH: EVQLVESGGGLVQPGGSLRVSCAASGFTVSRNYMSWVRQAPGKGLEWVSVIYSGGSTFYADSVKGRFTISRDNSKNTLYLQMNSLRAEDTAIYYCARYIPRFDPWGQGTLVTVSS
# VL: B1 VL with W30S, I33L, Y36F, K42R, K55E, H91Y, D93N, P96I, K103R, V104L
# B5: mAb10938 (antibody, V domains shown)
# VH: EVQLVESGGGLVQPGGSLRLSCAVSGFTVSSNYMSWVRQAPGKGLEWVSLIYSGGSTFYADSVKGRFTISRHNSKNTLYLQMNSLRAEDTAVYYCAREGGYSYDYNYWGQGTLVTVSS
# VL: B1 VL with W30R, I33L, K55E, S65I, H91Y, D93N, P96I, K103R, V104L
# B6: mAb10967 (antibody, V domains shown)
# VH: EVQLVESGGGLVQPGGSLRLSCAASGFTVSSNYMSWVRQAPGKGLEWVSVIYPGGSTFYADSVKGRFTISRDNSKNTLYLQMNSLRAEDTAVYYCARDQRDFAWGQGTLVTVSS
# VL: B1 VL with W30S, I33L, K55E, S77G, H91Y, D93N, K103R, V104L
# B7: mAb10915 (antibody, V domains shown)
# VH: EVQLVESGGGLVQPGGSLRLSCAASGFTVSSNYMNWVRQAPGKGLEWVSVIYSGGSTFYADSVKGRFTISRHNSKNTLYLQMNSLRPEDTAVYYCARDLGGYFDYWGQGTLVTVSS
# VL: not shown
# B8: mAb10937 (antibody, V domains shown)
# VH: QITLKESGPTLVKPTQTLTLTCTFSGFSLSTNVVGVGWIRQPPGKALEWLALIYWNDDKRYSPSLKSRLTITKDTSKNQVVLTMTNMDPVDTATYYCAHGPTGDYFDYWGQGTLVTVSS
# VL: not shown
# B9: mAb10920 (antibody, V domains shown)
# VH: QVQLVESGGGVVQPGRSLRLSCAASGFTFSYYGMHWVRQAPGKGLEWVAVIWYDGSNKFYADSVKGRFTISRDNSKNTLYLQMNSLRAEDTAVYYCAAARPGYYYGMDVWGQGTTVTVSS
# VL: DIQMTQSPSSLSASVGDRVTITCRASQGISNYLAWFQQKPGKAPNSLIYAASSLQRGVPSKFSGSGSGTDFTLTISSLQPEDFATYYCQQYNSYPRTFGQGTKVEIKR
# B10: mAb10930 (antibody, V domains shown)
# VH: EVQLVESGGGLVQPGRSLRLSCAASGFTFDDYAMYWVRQAPGKGLEWVSGISWNSGSIGYADSVKGRFTISRDNAKNSLYLQMNSLRAADTALYYCAKDKDWNSRGYYYYGMDVWGQGTTVTVSS
# VL: not shown
# B11: mAb10964 (antibody, V domains shown)
# VH: QVQLQESGPGLVKPSETLSLTCTVSGGSINNYYWIWIRQPPGKGLEWIGYIYHSGSTNYNPSLKSRVTISVDTSKNQFSLKVSSVTAADTAVYYCANMVRGVYEDDYWGQGTLVTVSS
# VL: DIQMTQSPSSLSASVGDRVTITCRASQSISNYLNWYQQKPGKAPKLLIFAASSLRSGVPSRFSGSGSGTDFTLTISSLHPEDFATYYCQQNYNTPLTFGPGTKVDIKR
# B12: mAb10966 (antibody, V domains shown)
# VH: EVQLVESGGGLVQPGGSLRLSCAASGLTVSSNYMSWVRQAPGKGLEWVSVIYSGGSTFYADSVKGRFTISRDNSKNTLYLQMNSLRPEDTAVYYCAREGRIAATGYGMDVWGQGTTVTVSS
# VL: not shown
# B13: mAb10921 (antibody, V domains shown)
# VH: EVQLVESGGGLVQPGGSLRLSCAASGITVSSNYMSWVRQAPGKGLEWVSVIYSGGSTFYADSVKGRFTISRHNSKNTLYLQMNSLRAEDTAVYYCARERNFDAFDIWGQGTMVTVSS
# VL: DIQMTQSPSSVSASVGDRVTITCRASQGISSWLAWYQQKPGKAPKLLIYAASSLQSGVPSRFSGSGSGTDFTLTISSLQPEDFATYYCQQANSFPLFTFGPGTKVDIKR
# B14: mAb10984 (antibody, V domains shown)
# VH: EVQLVESGGGLVQPGGSLRLSCAASGLTVNRNYMSWVRQAPGKGLEWVSLIYSGGSTYYADSVKGRFTISRDNSKNTLYLQMNSLRLEDTAVYYCARGELGIPYGMDVWGQGTTVTVSS
# VL: QSVLTQPPSVSAAPGQKVTISCSGSSSNIGNNYVSWYQQLPGTAPKLLIYDNNKRPSGIPDRFSGSKSGTSATLGITGLQTGDEADYYCGTWDSSLSAGVFGGGTKLTVLG
# B15: mAb10936 (antibody, V domains shown)
# VH: QVQLVESGGGVVQPGRSLRLSCAASGFTFRNYGMHWVRQAPGKGLEWVSVIWYDGSNRYYADSVKGRFTISRDTSKNTLYLQMNSLRAEDTAVYYCARDPPITGTTGGDAFDIWGQGTMVTVSS
# VL: not shown
# B16: mAb10965 (antibody, V domains shown)
# VH: EVQLVESGGGLIQPGGSLRLSCAASVFTVSYNYMSWVRQAPGKGLEWVSVIYSGGSTYYADSVKGRFTISRDNSKNTLYLQMNSLRAEDTAVYYCARALPGWGGSFEYFDYWGQGTLVTVSS
# VL: not shown
# B17: mAb10914 (antibody, V domains shown)
# VH: EVQLVESGGGLVQPGGSLRLSCAASGLIVSRNYMIWVRQAPGKGLEWVSVIYSGGSTFYADSVKGRFTISRHNSKNTLYLQMNSLRAEDTAVYYCARDLGTGGMDVWGQGTTVTVSS
# VL: DIQLTQSPSFLSASVGDRVTITCWASQGISSYLAWYQQKPGKAPKLLIYAASTLQSGVPSRFSGSGSGTEFTLTISSLQPEDFATYYCQQLNSYPLTFGGGTKVEIKR
# B18: mAb10956 (antibody, V domains shown)
# VH: B17 VH with I28T, R31S, I35S, H72D, G100I, T101K, G102Y
# VL: not shown
# B19: mAb10957 (antibody, V domains shown)
# VH: B17 VH with L27V, I28T, R31S, I35S, H72D, Y79F, A87I, T101P, G102Y
# VL: B13 VL with M4L, S10F, V11L, W32Y, S53T, D70Q, T72I, A91L, F94Y, L96G
# B20: mAb10939 (antibody, V domains shown)
# VH: EVQLVESGGGLVQPGGSLRLSCAASGLTVSSNYMNWVRQVPGKGLEWVSVIYSGGSKFYVDSVKGRFTISRHNSKNTLYLQMNSLRPEDTAVYYCTRDAQYYGMDVWGQGTTVTVSS
# VL: DIQMTQSPSSLSASVGDRVTITCRASQSISTYLHWYQQKPGEAPKLLIYAASSLQSGVPSRFSGSGSGTDFTLTISSLQPEDFATYYCQQSYSTPPEIFGQGTKLEIKR
# B21: mAb10932 (antibody, V domains shown)
# VH: EVQLVESGGGLVQSGGSLRLSCAASGLTVSSNYMSWVRQAPGKGLEWVSVIYSGGSTFYSDSVKGRFTISRHNSKNTLYLQMNSLRAEDTAVYYCARARGDAFDIWGQGTMVTVSS
# VL: not shown
# B22: mAb10971 (antibody, V domains shown)
# VH: EVQLVESGGGLIQPGGSLRLSCAASGVTVSSNYMSWVRQAPGKGLEWVSVIYSGGSTFYSDSVKGRFSISRDNSKNTLYLQMNSLRAEDTAVYYCARDLYYYGMDVWGQGTTVTVSS
# VL: DIQLTQSPSFLSASVGDRVTITCRASQGISTYLAWYQQKPGKAPKLLIYAASTLQSGVPSRFSGSGSGTEFTLTISSLQPEDFATYYCQQLDSYPGLTFGGGTKVEIKR
# B23: mAb10982 (antibody, V domains shown)
# VH: EVQLVESGGGLVQPGGSLRLSCAASGLTVSSNYMSWVRQAPGKGLEWVSVIYSGGTTYYADSVKGRFTISRHNSKNTLSLQMNSLRAEDTAVYYCARGEGANYYGMDVWGQGTTVTVSS
# VL: QSVLTQPPSVSGAPGQRVTISCTGSSSNIGTGYDVHWYQQLPGTAPKLLIYGNSNRPSGVPDRFSGSKSGTSASLAITGLQAEDEADYYCQSYDSSLSGYVVFGGGTKLTVLG
# B24: mAb10985 (antibody, V domains shown)
# VH: EVQLVESGGGLVQPGRSLRLSCAASGFTFDDYAMHWVRQAPGKGLEWVSGISWNRGSIGYADSVKGRFTISRDNAKNSLYLQMSSLRAEDTALYYCAKDGERWDSVVVPSARNGMDVWGQGTTVTVSS
# VL: B23 VL with T31A, Y100S, V101Y, G105T, L109V
# B25: mAb10913 (antibody, V domains shown)
# VH: EVQLVESGGGLVQPGGSLRLSCAASGFTFRNYEMNWVRQAPGKGLEWVSYITSSGSTMYYADSVKGRFTISRDNAKNSLYLQMNSLRAEDTAVYYCARDGFYYYYAMDVWGQGTTVTVSS
# VL: QSVLTQPPSVSAAPGQKVTISCSGSSSNIGNNYVSWYQQLPGTAPKLLIYDNNKRPSGIPDRFSGSKSGTSATLGITGLQTGDEADYYCGTWDSSLSVGRVFGTGTKVTVLG
# B26: mAb10923 (antibody, V domains shown)
# VH: QVQLVQSGAEVKKPGASVKVSCKASGYTFINYYIHWVRQAPGQGLEWMGWINPNSGGTNYAQKFQGRVTMTRDTSISTAYMELSRLRSDDTAVYYCAIITIFGVVTWFDPWGQGTLVTVSS
# VL: not shown
# Target: SARS-COV-2 Spike protein receptor binding domain (amino acids Arg319-Phe541) expressed with the Fc p (SARS-CoV-2)
row,Binder,IC50
1,B1,0.066 nM and 0.0597 nM
2,B2,0.0711 nM
3,B3,0.102 nM and 0.0694 nM
4,B4,0.141 nM
5,B5,0.275 nM
6,B6,0.28 nM
7,B7,0.321 nM
8,B8,0.0649 nM
9,B9,0.338 nM and 0.139 nM
10,B10,0.282 nM
11,B11,0.0683 nM and 0.0625 nM
12,B12,0.16 nM
13,B13,0.433 nM and 0.507 nM
14,B14,0.0775 nM
15,B15,0.0875 nM and 0.071 nM
16,B16,0.213 nM
17,B17,0.98 nM
18,B18,0.185 nM
19,B19,0.169 nM
20,B20,0.175 nM and 0.263 nM
21,B21,0.373 nM
22,B22,0.149 nM
23,B23,0.116 nM
24,B24,0.0696 nM and 0.0411 nM
25,B25,0.217 nM
26,B26,0.149 nM and 0.184 nM
